The nature of the series: Film-forming critical line of lysozyme concentration vs cysteine concentration. Conditions: FIG. 2. It is filed as physicochemical. As to the method:
In order to study a film-forming critical line between a film-forming protein and cysteine, the inventors prepared different concentrations of film-forming protein solutions and cysteine solutions, and curves were drawn as shown in FIG. 2. […] However, when the protein concentration was 0.2 mg/mL, higher concentration of cysteine was required for film formation.

Data on one substance can be found in patent US20240407995A1, “BIOMINERALIZATION MATERIAL FOR TREATING DENTIN HYPERSENSITIVITY AND PROMOTING EPITAXIAL GROWTH OF ENAMEL, AND USE THEREOF” (SHAANXI NORMAL UNIVERSITY, priority 2022, published 2024).

Turning to lysozyme [Lyz], the “protein concentration at which a small amount of cysteine could form a film” value is “greater than or equal to 0.2 mg/mL”.
